# Experimental data: the RNAGym collection of RNA variant scans (doi:10.1073/pnas.2313332121)
# B1: TPR t1 (parent)
# chain: GACCAAUCUGCCCUCAGAGCUCGAGAACAUCUUCGGAUGCAGAGGAGGCAGGCUUCGGUGGCGCGAUAGCGCCAACGUCCUCAACCUCCAAUGCAUCCCACCACAUGAUGAUGCCUGAAGAGCCUUGGUUUUUUG
# Variants of: B1
# Assay: polymerase ribozyme fitness, log enrichment relative to wild type (log ratio); higher = more active; in vitro selection for triplet polymerase activity
# In short: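 To select mutant libraries of each subunit of a heterodimeric triplet polymerase ribozyme, built by PCR and transcribed, each was annealed with a biotinylated primer, partner subunit and triplets, then incubated frozen at −7 °C. Extended constructs were gel-excised, captured on streptavidin beads and amplified by RT-PCR, in one round carried out in triplicate. Illumina sequencing of input and output libraries kept genotypes with ≥10 input reads and ≥1 read per output. Fitness is the base-2 logarithm of genotype enrichment relative to wild-type enrichment, from inverse-variance-weighted replicate averages.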
row,Variant,polymerase ribozyme fitness (log ratio)
1,A2U A16U U96A G128A,-4.83
2,A2U C13A C28U U112G,-6
3,A2U G93C,-3.65
4,C3A G42A G57C G107U C114U G128U U130C,-4.37
5,A2G U9C C13U A18U C56G C72G A95G,-4.64
6,A2U G113C,-3.73
7,A2U G113U,-4.15
8,C3A U9G G17C U54G G69U A105C G117A,-5.55
9,A2U C12A G63U C104G U109C,-6.12
10,A2G U9G G10U A27C C56G,-3.86
11,A2G G51A C73G,-2.89
12,C3U U7A U54C A95G U112A,0.973
13,C3G C56U U92G C123A,-3.5
14,C4A A24G G48U G60A,-4.54
15,C3U C11U G48A C56U C89G C101U,-3.51
16,C3A U21A G71U,-2.65
17,C3A C4U C72U C123G,-0.302
18,A2U C40A G128U,-4.11
19,C3G C8G C12U C79U G110C U130A,-5.96
20,A2G G61A U116A,-4.16
21,C3U A29U U109A,0.179
22,C3U U33G C53U U54A C73U U87A C124A,-4.16
23,C3A G45U G57U C82U C104A C123A,-4.01
24,A2G G19U G120U,-2.98

row,Variant,polymerase ribozyme fitness (log ratio)
1,A2G C20A C88U,-4.8
2,C3U G19A C70U A111G G120U,-3.71
3,C3A G71C C114G,-4.21
4,C3U U112A,0.197
5,A2G C20U,-1.26
6,C3A C114U,-3.65
7,C3A A66C,-2.64
8,A2U U9G G47U C88U G113A,-4.58
9,A2U C13U G77C,-1.85
10,C3U G44C G60A,-0.897
11,C3U C8G G10U G45C G71U C85A,-2.2
12,C3U C22A A74U G77A U106C C114A,-4.34
13,A2U C12U A27U G47A,-5.43
14,C3G A95G,-2.02
15,C3A G45A,-2.42
16,C3U G57U,-0.67
17,C3G C102A,-4.71
18,C3U A119G,0.367
19,C3A C11G G48U C114A,-2.07
20,C3A C8G A37G G93A,-0.343
21,A2G G122A U129C,-1.77
22,C3G C13U C56A,-2.3
23,C3A C49A A75U C123U,0.0976
24,A2U C99U,-5.84

row,Variant,polymerase ribozyme fitness (log ratio)
1,C3G G60C,-1.74
2,C3G G60C C86A,-2.81
3,C3G C11U C97A G120C,-5.66
4,C3G A6C C49A C53U G61C C97U C101U,-3.42
5,C3A C8A C12G G60A U92A C124A,-2.58
6,C3U C40G G63C C115U,-2.66
7,C3G U9C C13A C70G C89A U96C C101A G117C,-5.88
8,A2U A6G G17U G39U G52U C73G,-5.54
9,C3U C72G A90U U106A,-1.94
10,C3U C13U A41G G61U C79A C85U G120U G127C,-3.54
11,C3A C8A C70G,-3.71
12,C3A G42U G48U G52U C64U C86U G113U U133G,-7.08
13,C3G G17A G120C,-5.46
14,C3A C20A C49G A50C G61U,-5.32
15,A2U C12U G110A U129C,-1.58
16,C3G G60U U87A,-2.32
17,A2U A16G A26U G60U A119G,-4.84
18,A2G C13U,0.291
19,C3U U7C G48U C70U,-1.98
20,A2U C13U A50G G63A U112C,-1.43
21,C3G C4U A83U G122U C123U,-0.882
22,C3G C11G C97G C114A,-4.68
23,C3A A5C G48A C101A G122A,-1.86
24,A2G U21A G69U G71C,-4.01

row,Variant,polymerase ribozyme fitness (log ratio)
1,C3U C34A C73A,-2.99
2,A2G G63A C99U C101A A121G C124G,-4.81
3,C3U C62U A74U C89G,-2.26
4,C3U C12U A46G A50G C101A C104U,-0.987
5,C3A C8G C12A C13U C20G G35C C70G A118G C124A U132A,-6.19
6,C3U G48C C82G,-1.66
7,A2G G120A,0.359
8,C3U C86G G110C C124A,-5.57
9,C3A U38A A121C U129A,-0.064
10,C3G C49U U78A C115A,-3.75
11,C3A G36A C64U C123G,-0.723
12,C3A C28U G63C,-3.87
13,A2G G110U A118G,-1.67
14,C3U C11G C12A A50U C56G G113U,-6.33
15,A2G G63C U116A,-4.03
16,A2G C70U U96A,-1.87
17,C3G G36U C79U C89G C123G U133G,-3.18
18,A2U A6G C12U A24G C56A C97U,-3.05
19,C3A C12A G58A A83C,-2.19
20,C3U C11U C13G G63C U116C,-4.43
21,C3U C76G,-1.27
22,A2U C76A,-3.43
23,A2U C56A G120C,-2.63
24,A2G U7A C12A G39A C82A G122A,-0.0716

row,Variant,polymerase ribozyme fitness (log ratio)
1,A2U A108G,-3.51
2,C3U A18U C89U G120C G122U,-3.19
3,C3G U7G C15U U55G C56U G128U,-1.45
4,C4A A95C C123G,-1.42
5,A2G C123G,1.69
6,A2U C11G,0.322
7,C3U A16U G71A,-2.38
8,C4A A29G C31G A105G A108U A111C C115G C123A,-6.34
9,C3U C49A G63A C80U G93A,-5.66
10,A2U A37G G61A U87G,-2.89
11,A2U C40U C115A U133G,-2.75
12,A2U C15G,-4.66
13,C3A A29U,-3.36
14,C3U G48U G61C G65U G71A,-4.29
15,C3U A91U G93C G113C G135U,-3.84
16,C3U G45U U55A G60A U81A,-1.52
17,C3G G42C G44U G63U C123A G128C,-3.73
18,C3A U78C,-0.717
19,C3A U78A,-1.96
20,C3A G120A U130C,0.403
21,C3U G10U A26U U55C G69U U112C,-3.58
22,C3G C49G,-3.17
23,C3A C15U C40U C88U,-3.42
24,A2G C13U C53U,-0.428

row,Variant,polymerase ribozyme fitness (log ratio)
1,C3A A18C U112C U130C,-0.927
2,C3A C13G C89U G128C,-3.62
3,C3G G48C U87G U130C,-1.16
4,C3U G36A A50C G120U,-1.14
5,C3U U54A A91U,-2.48
6,C3G C12G,-0.885
7,C3U C11A C73G A75U C99G A103U A121G,-7.22
8,C3A G44U G63C,-3.25
9,C3A G36C C70G G120A A121U,-3.08
10,A2U G51A C123A,-4.9
11,A2G C20G G113A,-1.61
12,A2U C8U G69U C82G C114U,-2.12
13,A2U G42A A83U C88U,-5.05
14,C3U C53G C88A U112G U129A,-2.53
15,A2G C56A,-0.384
16,C3U G71C G77A,-5.92
17,C3U C72U U106C,-1.21
18,A2G G63C,-0.0882
19,C3U C22A U54C C72U C79U C82U A100U,-6.11
20,C3A U33A G48U A121C C124G,-4.93
21,A2G G19U C34U G47A C49A C80A G93C G120U,-6.24
22,A2G G42U G69A C123A,-5.6
23,C3A A66U G69U,-1.08
24,C3U A6C U55C,-1.74

row,Variant,polymerase ribozyme fitness (log ratio)
1,C3U A27G G135U,-5.83
2,A2U G10U A100C,-4.35
3,C3U A43U C56G U81A A95U A111G G122A,-5.71
4,C3U G117U,-2.69
5,C3U G117A,-1.5
6,C3U G93C,-1.09
7,C3U U9G G45A G51U C53G C123A,-5.27
8,C3G A37U C62A A95U G120C,-3.27
9,C3A G48A A84G C114U,-3.87
10,C3U C4A C53G C88U A90C C123A U130C,-0.356
11,A2G G93C,-1.48
12,A2U G47A C72A A121G,-0.127
13,C3G C15A C22G C115U,-4.4
14,C3A C53G C64U A118G C123U,-1.11
15,C3U G63C U78C,-3.19
16,C4A A16U C72U A95C,-3.63
17,A2G G10U A43U C62G C79U,-3.6
18,C3A G25U G58C U59G C97U C123A G135U,-6.86
19,A2U G35U G69U C79U G120A G128A,-3.99
20,C3U C15A G52C,-3.65
21,C3U A5G C34U G61C C62G C94U U109A C115U,-6.29
22,C3G C11G G19U G63A G120A,-5.7
23,A2G U55G G71A A95U,-1.12
